For three molecules, binding signal and Kd results are on record in publication PMC6434538.

Read-outs that look alike come from different tables or passages of the source.

The target of data set [1] is T1, RIG-I wild type (UniProt O95786 1-925).
T1 sequence: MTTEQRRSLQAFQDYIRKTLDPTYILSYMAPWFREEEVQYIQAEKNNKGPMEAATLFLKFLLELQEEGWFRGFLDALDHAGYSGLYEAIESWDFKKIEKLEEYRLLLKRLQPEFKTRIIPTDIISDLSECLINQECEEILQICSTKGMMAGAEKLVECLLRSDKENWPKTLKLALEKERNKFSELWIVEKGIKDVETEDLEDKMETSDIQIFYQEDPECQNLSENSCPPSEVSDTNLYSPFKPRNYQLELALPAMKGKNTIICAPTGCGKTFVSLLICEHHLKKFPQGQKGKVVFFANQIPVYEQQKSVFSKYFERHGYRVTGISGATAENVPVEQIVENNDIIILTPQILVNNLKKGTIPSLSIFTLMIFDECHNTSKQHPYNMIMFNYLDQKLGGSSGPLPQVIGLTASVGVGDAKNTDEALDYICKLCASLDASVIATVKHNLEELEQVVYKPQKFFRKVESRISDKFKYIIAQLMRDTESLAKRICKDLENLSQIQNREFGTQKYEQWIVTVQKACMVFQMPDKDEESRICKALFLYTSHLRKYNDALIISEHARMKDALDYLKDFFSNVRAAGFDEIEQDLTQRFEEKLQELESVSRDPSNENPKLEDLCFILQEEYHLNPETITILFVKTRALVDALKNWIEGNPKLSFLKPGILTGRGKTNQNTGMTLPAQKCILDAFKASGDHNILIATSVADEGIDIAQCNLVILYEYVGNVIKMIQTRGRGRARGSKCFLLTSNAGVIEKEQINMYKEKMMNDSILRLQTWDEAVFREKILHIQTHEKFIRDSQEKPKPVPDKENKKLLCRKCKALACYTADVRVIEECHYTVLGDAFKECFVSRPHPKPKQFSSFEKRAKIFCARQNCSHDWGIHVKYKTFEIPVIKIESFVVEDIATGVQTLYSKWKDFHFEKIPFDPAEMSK
The experiment in a line: fluorescence intensity titration.

The target of data set [2] is T1, RIG-I wild type. The experiment in a line: fluorescence intensity titration. The source holds these as a separate data set.
The target in data set [3] is T1, RIG-I wild type. The experiment in a line: ATPase titration or fluorescence titration.

B1: 5'OH dsRNA 27 bp (dsRNA)
RNA 1: AUACGUCCUGAUAGUUAGUAUCCAUCG
RNA 2: CGAUGGAUACUAACUAUCAGGACGUAU
modifications: 5'OH
Regarding B1, the binding signal in data set [1] is 1.5 fold higher Kd than 5'ppp dsRNA.

B2: 3'ovg dsRNA (dsRNA)
RNA 1: ACGUCCUGAUAGUUAGUAUCCAUCG
RNA 2: CGAUGGAUACUAACUAUCAGGACGUAU
modifications: 5'OH
B2: the binding signal in data set [2] was 50 fold higher Kd than 5'ppp dsRNA; in data set [1] it was 7 fold higher Kd than 5'ppp dsRNA.

B3: 5'ppp dsRNA 27 bp (dsRNA)
RNA 1: AUACGUCCUGAUAGUUAGUAUCCAUCG
RNA 2: CGAUGGAUACUAACUAUCAGGACGUAU
modifications: 5'-triphosphate on strand 1
The Kd is a measure of binding affinity in units of concentration. A low value points to higher affinity. Molecule B3 showed a Kd in data set [3] of 2.5 nM.
